Bounds are passed on as bounds.

The target in the assay is hemagglutinin of influenza B virus (B/Brisbane/60/2008 BX-35) (Influenza B virus B/Brisbane/60/2008 BX-35). In words: cell-based or functional assay.

B1: CR11039 (antibody, V domains shown)
VH: EVQLVQSGAEVKKPGESVKISCKTSGYAFTGYGISWVRQAPGQGLEWMGWINTYKFNTNYAQNLQGRVTMTIDTSTSAAYMELRSLRYEDTAVYFCARDWAGPFGNAFDVWGQGTMVTVSS
VL: IQMTQSPSSLSASIGDRVAITCQASQDISDYLNWYQQQPGKAPKLLLYGASNLETGVPSRFSGSGSGTDFTFTISSLQPEDIATYYCQQYGNLPPTFGGGTKLEIK
The molecule B1 gave a neutralizing capacity in MDCK cell culture, Experiment 5, CPE, undiluted virus of over 0.4 µg/mL and a neutralizing capacity in MDCK cell culture, Experiment 6, CPE, undiluted virus of over 0.8 µg/mL.

The record behind these values is patent US20160304586A1.
